The source of these data is article PMC5290277, “Specialized interfaces of Smc5/6 control hinge stability and DNA association”.

The Kd is the free concentration of one partner at which half of the binding sites on the other are occupied at equilibrium, for simple one-to-one binding.

The target in data set [1] is T1, Smc5 hinge (extended-hinge);Smc6 hinge (extended-hinge) (Schizosaccharomyces …, UniProt O13710;P53692 364-692;462-773, |).
T1 sequence 1: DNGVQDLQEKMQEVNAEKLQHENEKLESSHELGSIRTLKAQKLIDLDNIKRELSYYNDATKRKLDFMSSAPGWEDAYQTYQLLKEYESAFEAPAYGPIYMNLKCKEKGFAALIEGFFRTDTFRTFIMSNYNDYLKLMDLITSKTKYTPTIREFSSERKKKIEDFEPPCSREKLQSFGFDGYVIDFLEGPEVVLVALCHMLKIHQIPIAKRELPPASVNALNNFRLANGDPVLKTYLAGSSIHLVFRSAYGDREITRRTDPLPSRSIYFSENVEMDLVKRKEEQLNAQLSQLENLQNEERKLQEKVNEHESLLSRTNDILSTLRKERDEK
T1 sequence 2: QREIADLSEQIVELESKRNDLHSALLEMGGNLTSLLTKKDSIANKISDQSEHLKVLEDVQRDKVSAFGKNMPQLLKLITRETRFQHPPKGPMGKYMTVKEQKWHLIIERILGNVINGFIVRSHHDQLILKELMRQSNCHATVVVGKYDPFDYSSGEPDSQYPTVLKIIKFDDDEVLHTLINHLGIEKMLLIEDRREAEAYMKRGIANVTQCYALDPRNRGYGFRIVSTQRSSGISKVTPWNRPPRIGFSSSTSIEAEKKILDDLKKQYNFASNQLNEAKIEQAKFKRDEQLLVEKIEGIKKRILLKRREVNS
In words: switchSENSE; biphasic association and dissociation; 20 mM HEPES.NaOH pH 7.5, 100 mM NaCl, 1 mM EDTA, 0.5 mM TCEP, room temperature 10 min, 100 nM DNA (FP, EMSA); pull-down same buffer, protein incubation 4 C 30 min; switchSENSE buffer not given. The settings on record: protein: recombinant;recombinant, tags: N-terminal His6, HRV-3C cleaved;N-terminal StrepII, copies: 1;1, label: 3' Cy3, single strand, immobilized on gold. Background: In EMSA bound probe runs differently from free probe, usually more slowly.

Data set [2] deals with T2, Smc5 hinge Y612A;Smc6 hinge (extended-hinge) (Schizosaccharomyces …, UniProt O13710;P53692 364-692;462-773, Y612A|).
T2 sequence 1: T1 sequence 1 with Y249A
T2 sequence 2: T1 sequence 2
Nature of the data set: fluorescence polarization; 20 mM HEPES.NaOH pH 7.5, 100 mM NaCl, 1 mM EDTA, 0.5 mM TCEP, room temperature 10 min, 100 nM DNA (FP, EMSA); pull-down same buffer, protein incubation 4 C 30 min; switchSENSE buffer not given. The settings on record: protein: recombinant;recombinant, tags: N-terminal His6, HRV-3C cleaved;N-terminal StrepII, copies: 1;1, label: 5' fluorescein, single strand. A general note: In fluorescence polarisation assays a small probe gives low polarisation when free and higher when bound to something large.

In data set [3] the target is T1, Smc5 hinge (extended-hinge);Smc6 hinge …. The description is as above. Particulars: protein: recombinant;recombinant, tags: N-terminal His6, HRV-3C cleaved;N-terminal StrepII, copies: 1;1, label: 5' fluorescein, single strand.
The target of data set [4] is T3, Smc5 hinge (extended-hinge);Smc6 hinge R706C (Schizosaccharomyces …, UniProt O13710;P53692 364-692;462-773, |R706C).
T3 sequence 1: T1 sequence 1
T3 sequence 2: T1 sequence 2 with R245C
The data set is described as above. The settings on record: protein: recombinant;recombinant, tags: N-terminal His6, HRV-3C cleaved;N-terminal StrepII, copies: 1;1, label: 5' fluorescein, single strand.

Data set [5] concerns the target T4, Smc5 hinge (extended-hinge);Smc6 hinge F528A (Schizosaccharomyces …, UniProt O13710;P53692 364-692;462-773, |F528A).
T4 sequence 1: T1 sequence 1
T4 sequence 2: T1 sequence 2 with F67A
Described as above. The settings on record: protein: recombinant;recombinant, tags: N-terminal His6, HRV-3C cleaved;N-terminal StrepII, copies: 1;1, label: 5' fluorescein, single strand.

Substitutions are numbered along the chain they refer to.

Turning to GTGTGAACCCTCCAACAAAGGTAGCATTTGCCAGCTCTCGTGATGCAG (ssDNA, 5' HS-(CH2)6 thiol linker) [switchSENSE 48mer], the binding result in data set [1] is given as “binds”.
Regarding GCTCGTCTGGCTCTG (ssDNA) [15mer], the Kd in data set [2] is ~1300 nM; in data set [3], ~1200 nM; in data set [4], ~1600 nM; in data set [5], ~1700 nM.
